Data from patent publication US20210393745A1, “OLIGOMER EXTENDED INSULIN-FC CONJUGATES AND THEIR MEDICAL USE” (Novo Nordisk A/S, priority 2018, published 2021).

What was measured:
[1] = target: human insulin receptor isotype B (human) (UniProt P06213); test: SPA competition with [125I-A14Y]-human insulin, membrane-associated human IR-B; relative to human insulin standard
hFcRn ectodomain = hFcRn ectodomain (human, UniProt P55899); test: SPR (Biacore 4000), conjugate immobilised by amine coupling, hFcRn ectodomain as analyte, pH 6.0, 25 C, steady-state fit
[2] = target: human insulin-like growth factor-1 receptor (human, UniProt P08069); test: SPA competition with [125I-Tyr31]-human IGF-1, membrane-associated human IGF-1R; relative to human insulin standard
Description: (§1) Membrane-associated human IR and IGF-1R are purified from BHK cells stably transfected with the pZem219B vector containing either the human IR-A, IR-B or IGF-IR insert. BHK cells are harvested and homogenized in ice-cold buffer (25 mM HEPES pH 7.4, 25 mM CaCl₂ and 1 mM MgCl₂, 250 mg/L bacitracin, 0.1 mM Pefablock). The homogenates are layered on a 41% (w/v) sucrose cushion and centrifuged for 75 minutes at 95000 g at 4° C. The plasma membranes are collected, diluted 1:5 with buffer (as above) and centrifuged again for 45 minutes at 40000 g at 4° C. The pellets are resuspended in a minimal volume of buffer and drawn through a needle (size 23) three times before storage at −80° C. until usage. The relative binding affinity for either of the membrane-associated human IR-A, IR-B or IGF-1R is determined by competition binding in a SPA setup. IR assays are performed in duplicate in 96-well OptiPlates (Perkin-Elmer Life Sciences). Membrane protein is incubated with gentle agitation for 150 minutes at 25° C. with 50 pM [¹²⁵IA14Y]-human insulin in a total volume of […] assay buffer (50 mM HEPES, 150 mM NaCl, 5 mM MgSO4, 0.01% Triton X-100, 0.1% (w/v) HSA (Sigma A1887), Complete EDTA-free protease inhibitors), 50 μg of wheat germ agglutinate (WGA)-coated PVT microspheres (GE Healthcare) and increasing concentrations of ligand. Assays are terminated by centrifugation of the plate at 2000 rpm for 2 minutes and bound radioactivity quantified by counting on a TopCount NXT (Perkin-Elmer Life Sciences).
(§2) IGF-1R assays are conducted essentially as for the IR binding assays except that membrane-associated IGF-1R and 50 pM [¹²⁵I-Tyr31]-human IGF-1 were employed.

[3] = target: T1, human insulin receptor isotype A (human, UniProt P06213-2); test: SPA competition with [125I-A14Y]-human insulin, solubilised human IR-A; relative to human insulin (100%)
[4] = target: T1, human insulin receptor isotype A; test: SPA competition with [125I-A14Y]-human insulin, membrane-associated human IR-A; relative to human insulin standard
Description: as §1, §2

Molecule	Rel. aff. (%) [1] [%]	Kd (hFcRn ectodomain) [µM]	Rel. aff. (%) [2] [%]	Insulin receptor affinity [IC50 relative to HI (%)] [3] [%]	Rel. aff. (%) [4] [%]
(A14E, A21G, A22(GQEP)11, A66G, A67Q, A68E, A69K^, A70P, B16E, B25H, B29R, desB30 human insulin)/(226A, 227G, 228P, 234A, 235K, 297E, 315Q, 384Q, des447 hIgG4-Fc(226-447))3,5-bis[(2-acetyl)amino]benzoyl conjugate	0.59	–	–	–	–
(A14E, A21G, A22(GQEP)11, A66G, A67Q, A68E, A69K^, A70P, B16H, B25H, B29R, desB30 human insulin)/(226A, 227G, 228P, 234A, 235K, 297E, 315Q, 384Q, des447 hIgG4-Fc(226-447))3,5-bis[(2-acetyl)amino]benzoyl conjugate	1.26	–	–	–	–
(A14E, A21G, A22(GQEP)12, A70K^, A71P, B25H, B29R, desB30 human insulin)/(226A, 227G, 228P, 234A, 235K, 297E, 315Q, 384Q, des447 hIgG4-Fc(226-447))3,5-bis[(2-acetyl)amino]benzoyl conjugate	3.05	–	–	–	–
(A14E, A21G, A22(GQEP)12, A70K^, A71P, B25H, B29R, desB30 human insulin)/(226A, 227G, 228P, 234A, 235K, 297E, 315Q, 384Q, des447 … (other, epsilon amino group of Lys A70 (A70K) carries the trivalent linker 3,5-bis[(2-acetyl)amino]benzoyl, which bridges to Cys229 of both Fc polypeptides; ; thiol of Cys229 (EU numbering) linked to -C(O)-CH2- of the linker; aglycosylated (made in E. coli)) chain 1: GIVEQCCTSICSLEQLENYCGGQEPGQEPGQEPGQEPGQEPGQEPGQEPGQEPGQEPGQEPGQEPGQEPKP chain 2: FVNQHLCGSHLVEALYLVCGERGFHYTPR chain 3: AGPCPAPEAKGGPSVFLFPPKPKDTLMISRTPEVTCVVVDVSQEDPEVQFNWYVDGVEVHNAKTKPREEQFESTYRVVSVLTVLHQDWLQGKEYKCKVSNKGLPSSIEKTISKAKGQPREPQVYTLPPSQEEMTKNQVSLTCLVKGFYPSDIAVEWESQGQPENNYKTTPPVLDSDGSFFLYSRLTVDKSRWQEGNVFSCSVMHEALHNHYTQKSLSLSLG	–	1.5	0.91	4.5	2.97
(A14E, A21G, A22(GQEP)11, A66G, A67Q, A68E, A69K^, A70P, B16H, B25H, B29R, desB30 human insulin)/(226A, 227G, 228P, 234A, 235K, 297E, 315Q, 384Q, des447 … (other, epsilon amino group of Lys A69 (A69K) carries the trivalent linker 3,5-bis[(2-acetyl)amino]benzoyl, which bridges to Cys229 of both Fc polypeptides; ; thiol of Cys229 (EU numbering) linked to -C(O)-CH2- of the linker; aglycosylated (made in E. coli)) chain 1: GIVEQCCTSICSLEQLENYCGGQEPGQEPGQEPGQEPGQEPGQEPGQEPGQEPGQEPGQEPGQEPGQEKP chain 2: FVNQHLCGSHLVEALHLVCGERGFHYTPR chain 3: AGPCPAPEAKGGPSVFLFPPKPKDTLMISRTPEVTCVVVDVSQEDPEVQFNWYVDGVEVHNAKTKPREEQFESTYRVVSVLTVLHQDWLQGKEYKCKVSNKGLPSSIEKTISKAKGQPREPQVYTLPPSQEEMTKNQVSLTCLVKGFYPSDIAVEWESQGQPENNYKTTPPVLDSDGSFFLYSRLTVDKSRWQEGNVFSCSVMHEALHNHYTQKSLSLSLG	–	1.6	0.1	1.6	1.27
(A14E, A21G, A22(GQEP)11, A66G, A67Q, A68E, A69K^, A70P, B16E, B25H, B29R, desB30 human insulin)/(226A, 227G, 228P, 234A, 235K, 297E, 315Q, 384Q, des447 … (other, epsilon amino group of Lys A69 (A69K) carries the trivalent linker 3,5-bis[(2-acetyl)amino]benzoyl, which bridges to Cys229 of both Fc polypeptides; ; thiol of Cys229 (EU numbering) linked to -C(O)-CH2- of the linker; aglycosylated (made in E. coli)) chain 1: GIVEQCCTSICSLEQLENYCGGQEPGQEPGQEPGQEPGQEPGQEPGQEPGQEPGQEPGQEPGQEPGQEKP chain 2: FVNQHLCGSHLVEALELVCGERGFHYTPR chain 3: AGPCPAPEAKGGPSVFLFPPKPKDTLMISRTPEVTCVVVDVSQEDPEVQFNWYVDGVEVHNAKTKPREEQFESTYRVVSVLTVLHQDWLQGKEYKCKVSNKGLPSSIEKTISKAKGQPREPQVYTLPPSQEEMTKNQVSLTCLVKGFYPSDIAVEWESQGQPENNYKTTPPVLDSDGSFFLYSRLTVDKSRWQEGNVFSCSVMHEALHNHYTQKSLSLSLG	–	1.5	0.29	0.4	0.66
